Positions count from the first letter of the chain named. In names and notes the source's numbering stands.

Sequences and labels used below:
B1: SA301a LC-Q90A (antibody, name in Kabat numbering, V domains shown)
VH: QVQLQESGPGLVKPSQTLSLTCTVSGYSITSDYNSHWIRQPPGKGLEWIGYIHYSGSTNYNPSLKSRVTISRDTSKNQFSLKLSSVTAADTAVYYCARNYGSIYVNYFDYWGQGTLVTVSS
VL: EIVLTQSPATLSLSPGERATLSCSASSSVSYMYWYQQKPGQAPRPLIYRTSNLASGIPARFSGSGSGTDFTLTISSLEPEDFAVYYCQAYHSYPTFGGGTKVEIK
notes: IgG1 kappa
B2: SA301a LC-Q89M (antibody, V domains shown)
VH: B1 VH
VL: B1 VL with Q88M, A89Q
B3: SA301a LC-H92V (antibody, V domains shown)
VH: B1 VH
VL: B1 VL with A89Q, H91V
B4: SA301a LC-Q89S (antibody, V domains shown)
VH: B1 VH
VL: B1 VL with Q88S, A89Q
B5: SA301a LC-H92F (antibody, V domains shown)
VH: B1 VH
VL: B1 VL with A89Q, H91F
B6: SA301a LC-Q89E (antibody, V domains shown)
VH: B1 VH
VL: B1 VL with Q88E, A89Q
B7: SA301a LC-Q89G (antibody, V domains shown)
VH: B1 VH
VL: B1 VL with Q88G, A89Q
B8: SA301a LC-Q89N (antibody, V domains shown)
VH: B1 VH
VL: B1 VL with Q88N, A89Q
B9: SA301a LC-Q89V (antibody, V domains shown)
VH: B1 VH
VL: B1 VL with Q88V, A89Q
B10: SA301a LC-Q89K (antibody, V domains shown)
VH: B1 VH
VL: B1 VL with Q88K, A89Q
B11: SA301a LC-Q89A (antibody, V domains shown)
VH: B1 VH
VL: B1 VL with Q88A, A89Q
B12: SA301a LC-Q89Y (antibody, V domains shown)
VH: B1 VH
VL: B1 VL with Q88Y, A89Q
B13: SA301a LC-Q89F (antibody, V domains shown)
VH: B1 VH
VL: B1 VL with Q88F, A89Q
B14: SA301a LC-Q89L (antibody, V domains shown)
VH: B1 VH
VL: B1 VL with Q88L, A89Q
B15: SA301a LC-Q89D (antibody, V domains shown)
VH: B1 VH
VL: B1 VL with Q88D, A89Q
B16: SA301a LC-H92Y (antibody, V domains shown)
VH: B1 VH
VL: B1 VL with A89Q, H91Y
B17: SA301a LC-Y91Q (antibody, name in Kabat numbering, V domains shown)
VH: B1 VH
VL: B1 VL with A89Q, Y90Q
notes: IgG1 kappa
B18: SA301a LC-Q90V (antibody, name in Kabat numbering, V domains shown)
VH: B1 VH
VL: B1 VL with A89V
notes: IgG1 kappa
B19: SA301a LC-Q90I (antibody, name in Kabat numbering, V domains shown)
VH: B1 VH
VL: B1 VL with A89I
notes: IgG1 kappa
B20: SA301a LC-Y91F (antibody, name in Kabat numbering, V domains shown)
VH: B1 VH
VL: B1 VL with A89Q, Y90F
notes: IgG1 kappa
B21: SA301a LC-Q90M (antibody, name in Kabat numbering, V domains shown)
VH: B1 VH
VL: B1 VL with A89M
notes: IgG1 kappa
B22: SA301a LC-Q90G (antibody, name in Kabat numbering, V domains shown)
VH: B1 VH
VL: B1 VL with A89G
notes: IgG1 kappa
B23: SA301a LC-Q90T (antibody, name in Kabat numbering, V domains shown)
VH: B1 VH
VL: B1 VL with A89T
notes: IgG1 kappa
B24: SA301a LC-Y91P (antibody, name in Kabat numbering, V domains shown)
VH: B1 VH
VL: B1 VL with A89Q, Y90P
notes: IgG1 kappa
B25: SA301a LC-Y91G (antibody, name in Kabat numbering, V domains shown)
VH: B1 VH
VL: B1 VL with A89Q, Y90G
notes: IgG1 kappa
B26: SA301a LC-Q90R (antibody, name in Kabat numbering, V domains shown)
VH: B1 VH
VL: B1 VL with A89R
notes: IgG1 kappa
B27: SA301a LC-Q90F (antibody, name in Kabat numbering, V domains shown)
VH: B1 VH
VL: B1 VL with A89F
notes: IgG1 kappa
B28: SA301a LC-Y91S (antibody, name in Kabat numbering, V domains shown)
VH: B1 VH
VL: B1 VL with A89Q, Y90S
notes: IgG1 kappa
B29: SA301a LC-Q90Y (antibody, name in Kabat numbering, V domains shown)
VH: B1 VH
VL: B1 VL with A89Y
notes: IgG1 kappa
B30: SA301a LC-Y91E (antibody, name in Kabat numbering, V domains shown)
VH: B1 VH
VL: B1 VL with A89Q, Y90E
notes: IgG1 kappa
B31: SA301a LC-Q90D (antibody, name in Kabat numbering, V domains shown)
VH: B1 VH
VL: B1 VL with A89D
notes: IgG1 kappa
B32: SA301a LC-Q90P (antibody, name in Kabat numbering, V domains shown)
VH: B1 VH
VL: B1 VL with A89P
notes: IgG1 kappa
B33: SA301a LC-Q90H (antibody, name in Kabat numbering, V domains shown)
VH: B1 VH
VL: B1 VL with A89H
notes: IgG1 kappa
B34: SA301a LC-Y91K (antibody, name in Kabat numbering, V domains shown)
VH: B1 VH
VL: B1 VL with A89Q, Y90K
notes: IgG1 kappa
B35: SA301a LC-Y91V (antibody, name in Kabat numbering, V domains shown)
VH: B1 VH
VL: B1 VL with A89Q, Y90V
notes: IgG1 kappa
B36: SA301a LC-Y91M (antibody, name in Kabat numbering, V domains shown)
VH: B1 VH
VL: B1 VL with A89Q, Y90M
notes: IgG1 kappa
B37: SA301a LC-Q90L (antibody, name in Kabat numbering, V domains shown)
VH: B1 VH
VL: B1 VL with A89L
notes: IgG1 kappa
B38: SA301a LC-Q90E (antibody, name in Kabat numbering, V domains shown)
VH: B1 VH
VL: B1 VL with A89E
notes: IgG1 kappa
B39: SA301a LC-Y91I (antibody, name in Kabat numbering, V domains shown)
VH: B1 VH
VL: B1 VL with A89Q, Y90I
notes: IgG1 kappa
B40: SA301a LC-Y91T (antibody, name in Kabat numbering, V domains shown)
VH: B1 VH
VL: B1 VL with A89Q, Y90T
notes: IgG1 kappa
B41: SA301a LC-Q90K (antibody, name in Kabat numbering, V domains shown)
VH: B1 VH
VL: B1 VL with A89K
notes: IgG1 kappa
B42: SA301a LC-Y91A (antibody, name in Kabat numbering, V domains shown)
VH: B1 VH
VL: B1 VL with A89Q, Y90A
notes: IgG1 kappa
B43: SA301a LC-Q90S (antibody, name in Kabat numbering, V domains shown)
VH: B1 VH
VL: B1 VL with A89S
notes: IgG1 kappa
B44: SA301a LC-Y91R (antibody, name in Kabat numbering, V domains shown)
VH: B1 VH
VL: B1 VL with A89Q, Y90R
notes: IgG1 kappa

In this experiment the target is T1, human IL-18BP (human, UniProt O95998 31-194).
T1 construct: UniProt printed as 095998; also called hIL-18BP
T1 sequence: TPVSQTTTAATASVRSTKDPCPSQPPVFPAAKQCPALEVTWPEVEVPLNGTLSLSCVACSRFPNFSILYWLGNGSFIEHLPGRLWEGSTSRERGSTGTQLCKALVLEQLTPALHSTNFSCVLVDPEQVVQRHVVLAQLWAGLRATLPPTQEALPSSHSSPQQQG
Put plainly: BLI, apparent KD. Background: In BLI a coated tip is dipped into the sample, and binding shifts an interference pattern.
As for B1, the Kd amounted to 1.07 nM.
As for B2, the Kd is 0.49 nM.
With B3, the Kd stood at 0.2 nM.
In the case of B4 it was 0.28 nM.
In the case of B5, the Kd worked out at 0.7 nM.
As to B6, the Kd was determined as 0.46 nM.
B7: the Kd amounted to 0.32 nM.
In the case of B8 it was 0.28 nM; in that of B9, 0.51 nM; in that of B10, 0.97 nM.
B11: the Kd came to 0.39 nM.
Regarding B12, the Kd came to 0.35 nM.
With B13, the Kd worked out at 0.4 nM.
Consider B14, for which the Kd came to 0.85 nM.
Consider B15, for which the Kd was 0.02 nM.
On to B16, for which the Kd turned out to be 0.1 nM.
On to B17, for which the Kd was 0.24 nM.
In the case of B18 it was 0.29 nM; in that of B19, 0.24 nM; in that of B20, 0.26 nM.
For B21, the Kd came out at 0.27 nM.
On to B22, for which the Kd is 0.78 nM.
In the case of B23, the Kd came to 0.4 nM.
Consider B24, for which the Kd is 0.24 nM.
For B25, the Kd was 0.23 nM.
Turning to B26, the Kd is 0.51 nM.
The value for B27 was 0.65 nM.
In the case of B28, the Kd is 0.33 nM.
As to B29, the Kd was 1.04 nM.
On to B30, for which the Kd was found to be 0.31 nM.
For the molecule B31, the Kd worked out at 0.31 nM.
As for B32, the Kd came to 0.09 nM.
In the case of B33 it was 0.25 nM; in that of B34, 1.13 nM; in that of B35, 1.85 nM.
In the case of B36 it was 0.22 nM; in that of B37, 0.13 nM.
With B38, the Kd is 0.18 nM.
For B39, the Kd came to 0.42 nM.
For B40, the Kd came to 0.45 nM.
Turning to B41, the Kd was 0.1 nM.
The value for B42 was 1.08 nM; that for B43 was 0.41 nM; that for B44 was 0.18 nM.

The values above are taken from patent US20250368745A1 (published 2025).
